These results are taken from patent publication US20240368668A1, “SUBSTRATES AND BIOMARKERS OF ADAMTS7” (The Broad Institute, Inc., priority 2021, published 2024).

Square brackets hold non-standard residues; d marks the D form. Ends that are not written are not given here. Met(O) = CS(=O)CC[C@H](N)C(=O)O

The target in the test is T1, mouse ADAMTS7 (Mus musculus, UniProt Q68SA9, E373Q).
T1 construct: Full-length mouse Adamts7 1-1857 (Uniprot Q68SA9, WT or E373Q catalytic mutant); expressed in transfected cells; host or cells: Human Coronary Artery Smooth Muscle Cells (HCA-SMC, Lonza), adenovirus 50 MOI
T1 sequence (Q68SA9 221-1657 E373Q): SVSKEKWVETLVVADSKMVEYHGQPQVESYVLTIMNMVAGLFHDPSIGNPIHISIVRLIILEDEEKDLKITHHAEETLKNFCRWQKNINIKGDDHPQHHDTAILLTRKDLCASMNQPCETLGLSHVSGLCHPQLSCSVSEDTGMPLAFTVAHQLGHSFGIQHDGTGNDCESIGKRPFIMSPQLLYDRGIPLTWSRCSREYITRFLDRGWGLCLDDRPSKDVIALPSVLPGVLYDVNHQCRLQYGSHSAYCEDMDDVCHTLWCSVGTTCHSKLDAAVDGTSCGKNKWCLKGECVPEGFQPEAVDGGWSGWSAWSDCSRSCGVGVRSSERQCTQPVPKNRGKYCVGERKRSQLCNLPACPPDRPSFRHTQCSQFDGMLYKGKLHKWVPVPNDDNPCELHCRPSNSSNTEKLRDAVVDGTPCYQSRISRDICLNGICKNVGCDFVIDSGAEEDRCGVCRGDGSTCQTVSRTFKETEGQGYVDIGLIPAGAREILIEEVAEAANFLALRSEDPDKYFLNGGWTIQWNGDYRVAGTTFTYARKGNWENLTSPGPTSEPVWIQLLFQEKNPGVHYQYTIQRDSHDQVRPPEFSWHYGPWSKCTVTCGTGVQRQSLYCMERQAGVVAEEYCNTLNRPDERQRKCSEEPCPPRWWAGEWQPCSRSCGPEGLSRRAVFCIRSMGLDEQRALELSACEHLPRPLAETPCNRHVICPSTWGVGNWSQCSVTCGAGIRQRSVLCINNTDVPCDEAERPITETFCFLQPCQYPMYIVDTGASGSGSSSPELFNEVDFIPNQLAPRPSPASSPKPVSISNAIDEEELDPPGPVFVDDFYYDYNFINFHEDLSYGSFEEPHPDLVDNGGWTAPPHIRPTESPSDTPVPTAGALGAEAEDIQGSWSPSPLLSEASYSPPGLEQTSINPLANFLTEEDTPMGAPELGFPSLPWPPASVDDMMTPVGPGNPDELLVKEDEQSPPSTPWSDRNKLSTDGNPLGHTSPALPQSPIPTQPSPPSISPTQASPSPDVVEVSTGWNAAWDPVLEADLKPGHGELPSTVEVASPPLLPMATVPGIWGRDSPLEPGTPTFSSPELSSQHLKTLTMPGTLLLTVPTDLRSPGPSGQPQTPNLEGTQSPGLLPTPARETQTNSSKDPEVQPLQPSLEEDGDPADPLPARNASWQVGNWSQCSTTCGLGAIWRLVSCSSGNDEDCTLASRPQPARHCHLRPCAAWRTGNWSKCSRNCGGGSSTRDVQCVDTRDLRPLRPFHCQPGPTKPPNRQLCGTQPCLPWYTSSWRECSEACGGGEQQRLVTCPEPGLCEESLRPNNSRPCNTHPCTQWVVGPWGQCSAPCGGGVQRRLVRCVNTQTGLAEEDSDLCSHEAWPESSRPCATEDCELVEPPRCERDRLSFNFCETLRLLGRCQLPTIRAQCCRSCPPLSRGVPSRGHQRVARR
The test is described as follows: TMT10 TAILS N-terminomics, HUVEC experiment (process replicates, trypsin/AspN digest). Conditions: HUVEC TAILS HC; log fold change of N-terminal peptide, Ad-mADAMTS7 EQ over Luc. The test is classed as cell-based, human. The procedure, abridged: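 Full-length mouse ADAMTS7 (WT or E373Q mutant, C-terminal 3xFLAG) or luciferase was transduced via adenovirus, 50 MOI, into HCA-SMC (SMC1, SMC2) or HUVEC. SMC1: pooled media, technical triplicates 400 ug; SMC2: process triplicates 300 ug; HUVEC: process triplicates 200 ug, bFGF2 10 ng/ml.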
Take “ASMT_321 (LSSAGFR; listed as Homo sapiens)”: the logFC.mEQ.over.Luc is reported as −0.39.

Substance “BICD1_280 (NNDDKMNGHIHGPLVKLNGDYR; listed as Homo sapiens)” registered a logFC.mEQ.over.Luc of −0.08.

Consider “CLU_267 (FQHPPTEFIR; listed as Homo sapiens)”, for which the logFC.mEQ.over.Luc is on record as −0.08.

In the case of “CTGF_173 (TVVGPALAAYR; listed as Homo sapiens)”, the logFC.mEQ.over.Luc is reported as −0.45.

In turn, “CTGF_174 (VVGPALAAYR; listed as Homo sapiens)” came in with a logFC.mEQ.over.Luc of −0.31.

Turning to “FN1_1624 (LVQTAVTTIPAPT; listed as Homo sapiens)”, the logFC.mEQ.over.Luc is −0.16.

In turn, “FN1_1743 (WESPQGQVSR; listed as Homo sapiens)” displayed a logFC.mEQ.over.Luc of −0.19.

With “LTBP2_129 (QQQPAPR; listed as Homo sapiens)”, the logFC.mEQ.over.Luc is listed as −0.49.

“LTBP2_253 (GEGTLAR; listed as Homo sapiens)” returned a logFC.mEQ.over.Luc of −0.09.

In turn, “LTBP3_164 (LSTGALPPLAPEG; listed as Homo sapiens)” came in with a logFC.mEQ.over.Luc of −0.39.

The substance “LTBP3_205 (HAAFLVPLGPGQISA; listed as Homo sapiens)” returned a logFC.mEQ.over.Luc of −0.13.

Substance “LTBP3_221 (VQAPPPVVNVR; listed as Homo sapiens)” returned a logFC.mEQ.over.Luc of −0.39.

Substance “MCFD2_55 (HLEGVINKPEA; listed as Homo sapiens)” registered a logFC.mEQ.over.Luc of 0.14.

“PSAP_301 (LVEPIKKH; listed as Homo sapiens)”: the logFC.mEQ.over.Luc is on record as −0.06.

Regarding “PTBP1_376 (AAAAAGR; listed as Homo sapiens)”, the logFC.mEQ.over.Luc was found to be 0.06.

In turn, “PZP_578 (HAHLQVAAAPQSLCALR; listed as Homo sapiens)” came in with a logFC.mEQ.over.Luc of −0.34.

In the case of “THBS1_630 (FGQGVEHATANK; listed as Homo sapiens)”, the logFC.mEQ.over.Luc is listed as −0.01.

In turn, “UQCRH_76 (HGSPNNSERAMRAVGE[Met(O)]CKGPGAAR; listed as Homo sapiens)” displayed a logFC.mEQ.over.Luc of 0.01.

Take “ZYX_244 (PVSLANTQPR; listed as Homo sapiens)”: the logFC.mEQ.over.Luc is given as 0.18.
